The source of these data is patent publication US7067109.

The test deals with anti-VCAM-1•tTF coaguligand (anti-VCAM-1 antibody covalently linked through SMPT to truncated tissue factor) (human) (UniProt P13726). Kind of test: 125I-labeled 10H10 on anti-VCAM-1•tTF-treated IL-1α-activated bEnd.3 cells.
Chain of UniProt P13726 (P13726 other isoform, or with tags, fused parts or gaps): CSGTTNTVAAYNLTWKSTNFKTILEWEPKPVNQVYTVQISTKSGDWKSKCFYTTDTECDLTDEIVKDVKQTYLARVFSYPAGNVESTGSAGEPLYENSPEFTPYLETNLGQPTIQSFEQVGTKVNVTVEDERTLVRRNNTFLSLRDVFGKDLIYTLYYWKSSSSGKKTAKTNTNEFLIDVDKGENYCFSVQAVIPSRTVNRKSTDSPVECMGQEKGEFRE

“10H10, mouse monoclonal antibody against human tissue factor” gave an amount of antibody bound to the cells at saturation of 8.7 fmol and a molecules of antibody bound per cell at saturation (molecules per cell) of 540000.
